Source: publication PMC10709384, “Structure of the complete Saccharomyces cerevisiae Rpd3S-nucleosome complex” (Nature Communications, 2023)

Biological target: the molecule itself
Assay: cryo-EM structure; nucleosome (0.9 µM) and Rpd3S (1.8 µM) mixed on ice for 1 h in 50 mM NaCl, 20 mM Na-HEPES pH 7.4, 1 mM TCEP, 4% glycerol; Superose 6 Increase 3.2/300; mild glutaraldehyde cross-linking; single-particle cryo-EM, overall 2.8 Å (Ume1 only at more than 8 Å)

B1: Rco1 (natural protein, S. cerevisiae)
chain: MDTSKKDTTRSPSHSNSSSPSSSSLSSSSSKEKKRPKRLSSQNVNYDLKRRKIITSEGIERSFKNEHSNLAVEDNIPEEEPKELLEKDSKGNIIKLNEPSTISEDSKVSVTGLPLNKGPSEKIKRESLWNYRKNLGGQSNNSEMTLVPSKRFTQVPKNFQDLNRNDLKTFLTENMTEESNIRSTIGWNGDIINRTRDREPESDRDNKKLSNIRTKIILSTNATYDSKSKLFGQNSIKSTSNASEKIFRDKNNSTIDFENEDFCSACNQSGSFLCCDTCPKSFHFLCLDPPIDPNNLPKGDWHCNECKFKIFINNSMATLKKIESNFIKQNNNVKIFAKLLFNIDSHNPKQFQLPNYIKETFPAVKTGSRGQYSDENDKIPLTDRQLFNTSYGQSITKLDSYNPDTHIDSNSGKFLICYKCNQTRLGSWSHPENSRLIMTCDYCQTPWHLDCVPRASFKNLGSKWKCPLHSPTKVYKKIHHCQEDNSVNYKVWKKQRLINKKNQLYYEPLQKIGYQNNGNIQIIPTTSHTDYDFNQDFKITQIDENSIKYDFFDKIYKSKMVQKRKLFQFQESLIDKLVSNGSQNGNSEDNMVKDIASLIYFQVSNNDKSSNNKSASKSNNLRKLWDLKELTNVVVPNELDSIQFNDFSSDEIKHLLYLKKIIESKPKEELLKFLNIENPENQSE
notes: Rco1, S. cerevisiae, amplified from genomic DNA of strain BJ5464; cloned into a 438-A vector with no tag; Two copies (Rco1A in the core module, Rco1B in the auxiliary module) stand in the Rpd3S complex; also called Rco1A; Rco1B
Question: Does B1 bind?
Answer: Result: binds
